Source: publication PMC3992121 (Proteins, 2013)

B1: BaiA1, 3α-Hydroxysteroid Dehydrogenase from Clostridium scindens VPI 12708 (enzyme, UniProt P07914 1-249, looked up)
chain: MKLVQDKITIITGGTRGIGFAAAKLFIENGAKVSIFGETQEEVDTALAQLKELYPEEEVLGFAPDLTSRDAVMAAVGTVAQKYGRLDVMINNAGITMNSVFSRVSEEDFKNIMDINVNGVFNGAWSAYQCMKDAKQGVIINTASVTGIYGSLSGIGYPTSKAGVIGLTHGLGREIIRKNIRVVGVAPGVVDTDMTKGLPPEILEDYLKTLPMKRMLKPEEIANVYLFLASDLASGITATTISVDGAYRP
B2: BaiA2, 3α-Hydroxysteroid Dehydrogenase from Clostridium scindens VPI 12708 (enzyme, UniProt P19337 1-249, looked up)
chain: MNLVQDKVTIITGGTRGIGFAAAKIFIDNGAKVSIFGETQEEVDTALAQLKELYPEEEVLGFAPDLTSRDAVMAAVGQVAQKYGRLDVMINNAGITSNNVFSRVSEEEFKHIMDINVTGVFNGAWCAYQCMKDAKKGVIINTASVTGIFGSLSGVGYPASKASVIGLTHGLGREIIRKNIRVVGVAPGVVNTDMTNGNPPEIMEGYLKALPMKRMLEPEEIANVYLFLASDLASGITATTVSVDGAYRP
modifications: selenomethionine (protein expressed in a selenomethionine-containing medium for structure determination)

Target: the molecule itself
Test: SEC

Protein	stoichiometry N
B1	4
B2	4
